Laboratory results reported in US20240391971A1.

Molecular target: human GFRAL (UniProtKB-Q6UXV0) (human) (UniProt Q6UXV0)
Assay: cell-based or functional assay

human GFRAL, sequence (Q6UXV0 19-394): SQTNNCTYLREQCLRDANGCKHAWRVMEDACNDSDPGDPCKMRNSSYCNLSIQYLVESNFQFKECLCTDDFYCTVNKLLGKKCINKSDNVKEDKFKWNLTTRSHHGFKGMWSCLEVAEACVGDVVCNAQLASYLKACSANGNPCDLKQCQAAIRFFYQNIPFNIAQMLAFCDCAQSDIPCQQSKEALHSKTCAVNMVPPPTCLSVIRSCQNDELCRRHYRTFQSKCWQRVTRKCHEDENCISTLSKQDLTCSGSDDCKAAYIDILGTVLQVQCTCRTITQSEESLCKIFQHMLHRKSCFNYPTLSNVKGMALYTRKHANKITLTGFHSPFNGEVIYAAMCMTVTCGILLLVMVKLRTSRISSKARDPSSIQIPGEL

Relative activity ratio (native GDF15 EC50: Fc-GDF15 construct EC50), ERK1/2 phosphorylation HTRF in HEK293T cells expressing human GFRAL and RET: 1
Substance: native GDF15 (ACROBiosystems, GD5-H5149) (from UniProt Q99988 195-308) (ligand)
